Test results: patent US20230212319A1, “NOVEL ANTIGEN BINDING DOMAINS AND SYNTHETIC ANTIGEN RECEPTORS INCORPORATING THE SAME” (University of Southern California, priority 2020, published 2023)

B1: SEQ ID NO: 22252: bispecific SAR on CD19 targeted SIR backbone comprising the receptor binding domain of the ligand 4-1BB (protein)
chain: MALPVTALLLPLALLLHAARPDIQMTQSPSSLSASVGDRVTITCKASDHINNWLAWYQQKPGQAPKLLIYGATTLETGVPSRFSGSGSGTDYTLTISSLQPEDFATYYCQQSWNTPWTFGQGTKLEIKRLEDLKNVFPPEVAVFEPSEAEISHTQKATLVCLATGFYPDHVELSWWVNGKEVHSGVCTDPQPLKEQPALNDSRYCLSSRLRVSATFWQNPRNHFRCQVQFYGLSENDEWTQDRAKPVTQIVSAEAWGRADCGFTSESYQQGVLSATILYEILLGKATLYAVLVSALVLMAMVKRKDSRGRAKRSGSGATNFSLLKQAGDVEENPGPTSATMDWIWRILFLVGAATGAHSGPGLLDLRQGMFAQLVAQNVLLIDGPLSWYSDPGLAGVSLTGGLSYKEDTKELVVAKAGVYYVFFQLELRRVVAGEGSGSVSLALHLQPLRSAAGAAALALTVDLPPASSEARNSAFGFQGRLLHLSAGQRLGVHLHTEARARHAWQLTQGATVLGLFRVTPEIPAGLPSPRSEGSGGGGSGGGGSGGGGSFEQVQLQQPGAELVKPGASVKMSCKASGYAFSSYWINWMKQKPGQGLEWIGQIYPGDGDTNYNGKFKGRATLTADTSSSTAYMQLSSLTSEDSAVYFCARSITTVVGCAMDYWGQGTSVTVSSTRIQNPDPAVYQLRDSKSSDKSVCLFTDFDSQTNVSQSKDSDVYITDKCVLDMRSMDFKSNSAVAWSNKSDFACANAFNNSIIPEDTFFPSPESSCDVKLVEKSFETDTNLNFQNLSVIGFRILLLKVAGFNLLMTLRLWSSRAKRSGSGVKQTLNFDLLKLAGDVESNPGPSRGHMTEYKPTVRLATRDDVPRAVRTLAAAFADYPATRHTVDPDRHIERVTELQELFLTRVGLDIGKVWVADDGAAVAVWTTPESVEAGAVFAEIGPRMAELSGSRLAAQQQMEGLLAPHRPKEPAWFLATVGVSPDHQGKGLGSAVVLPGVEAAERAGVPAFLETSAPRNLPFYERLGFTVTADVEVPEGPRTWCMTRKPGA
B2: SEQ ID NO: 22253: bispecific SAR on CD19 targeted SIR backbone comprising the receptor binding domain of the ligand APRIL (protein)
chain: MALPVTALLLPLALLLHAARPDIQMTQSPSSLSASVGDRVTITCKASDHINNWLAWYQQKPGQAPKLLIYGATTLETGVPSRFSGSGSGTDYTLTISSLQPEDFATYYCQQSWNTPWTFGQGTKLEIKRLEDLKNVFPPEVAVFEPSEAEISHTQKATLVCLATGFYPDHVELSWWVNGKEVHSGVCTDPQPLKEQPALNDSRYCLSSRLRVSATFWQNPRNHFRCQVQFYGLSENDEWTQDRAKPVTQIVSAEAWGRADCGFTSESYQQGVLSATILYEILLGKATLYAVLVSALVLMAMVKRKDSRGRAKRSGSGATNFSLLKQAGDVEENPGPTSATMDWIWRILFLVGAATGAHSGPVLHLVPINATSKDDSDVTEVMWQPALRRGRGLQAQGYGVRIQDAGVYLLYSQVLFQDVTFTMGQVVSREGQGRQETLFRCIRSMPSHPDRAYNSCYSAGVFHLHQGDILSVIIPRARAKLNLSPHGTFLGFVKLGSGGGGSGGGGSGGGGSFEQVQLQQPGAELVKPGASVKMSCKASGYAFSSYWINWMKQKPGQGLEWIGQIYPGDGDTNYNGKFKGRATLTADTSSSTAYMQLSSLTSEDSAVYFCARSITTVVGCAMDYWGQGTSVTVSSTRIQNPDPAVYQLRDSKSSDKSVCLFTDFDSQTNVSQSKDSDVYITDKCVLDMRSMDFKSNSAVAWSNKSDFACANAFNNSIIPEDTFFPSPESSCDVKLVEKSFETDTNLNFQNLSVIGFRILLLKVAGFNLLMTLRLWSSRAKRSGSGVKQTLNFDLLKLAGDVESNPGPSRGHMTEYKPTVRLATRDDVPRAVRTLAAAFADYPATRHTVDPDRHIERVTELQELFLTRVGLDIGKVWVADDGAAVAVWTTPESVEAGAVFAEIGPRMAELSGSRLAAQQQMEGLLAPHRPKEPAWFLATVGVSPDHQGKGLGSAVVLPGVEAAERAGVPAFLETSAPRNLPFYERLGFTVTADVEVPEGPRTWCMTRKPGA
B3: CD8SP-CD19-hu-mROO5-1-vL-IgCL-TCRg-6MD-F-P2A-SP-CD19-hu-mROO5-1-vH-hTCR-delta-F-F2A-PAC (protein)
chain: MALPVTALLLPLALLLHAARPDIQMTQSPSSLSASVGDRVTITCKASDHINNWLAWYQQKPGQAPKLLIYGATTLETGVPSRFSGSGSGTDYTLTISSLQPEDFATYYCQQSWNTPWTFGQGTKLEIKRLEGQPKANPTVTLFPPSSEELQANKATLVCLISDFYPGAVTVAWKADGSPVKAGVETTKPSKQSNNKYAASSYLSLTPEQWKSHRSYSCQVTHEGSTVEKTVAPTECSPIKTDVITMDPKDNCSKDANDTLLLQLTNTSAYYMYLLLLLKSVVYFAIITCCLLRRTAFCCNGEKSRAKRSGSGATNFSLLKQAGDVEENPGPTSMDWIWRILFLVGAATGAHSFEQVQLQQPGAELVKPGASVKMSCKASGYAFSSYWINWMKQKPGQGLEWIGQIYPGDGDTNYNGKFKGRATLTADTSSSTAYMQLSSLTSEDSAVYFCARSITTVVGCAMDYWGQGTSVTVSSTRSQPHTKPSVFVMKNGTNVACLVKEFYPKDIRINLVSSKKITEFDPAIVISPSGKYNAVKLGKYEDSNSVTCSVQHDNKTVHSTDFEVKTDSTDHVKPKETENTKQPSKSCHKPKAIVHTEKVNMMSLTVLGLRMLFAKTVAVNFLLTAKLFFLRAKRSGSGVKQTLNFDLLKLAGDVESNPGPSRGHMTEYKPTVRLATRDDVPRAVRTLAAAFADYPATRHTVDPDRHIERVTELQELFLTRVGLDIGKVWVADDGAAVAVWTTPESVEAGAVFAEIGPRMAELSGSRLAAQQQMEGLLAPHRPKEPAWFLATVGVSPDHQGKGLGSAVVLPGVEAAERAGVPAFLETSAPRNLPFYERLGFTVTADVEVPEGPRTWCMTRKPGA
B4: CD8SP-BCMA-FHVH-93-G4S-hu-mROO5-vL-[hTCRb-S57C]-F-P2A-IgHSP-CD20-VHH-USC1-2HCD26-G4S-AFP-Va-14-3-AI-[hTCRa-T48C]-F-F2A-PAC (protein)
chain: MALPVTALLLPLALLLHAARPACEVQLLESGGGLIQPGGSLRLSCAASGFTFSSHAMTWVRQAPGKGLEWVSAISGSGDYTHYADSVKGRFTISRDNSKNTVYLQMNSLRAEDSAVYYCAKDEDGGSLLGHRGQGTLVTVSSGTGGGGSGGGGSGGGGSEFDIQMTQSPSSLSASVGDRVTITCKASDHINNWLAWYQQKPGQAPKLLIYGATTLETGVPSRFSGSGSGTDYTLTISSLQPEDFATYYCQQSWNTPWTFGQGTKLEIKRLEDLKNVFPPEVAVFEPSEAEISHTQKATLVCLATGFYPDHVELSWWVNGKEVHSGVCTDPQPLKEQPALNDSRYCLSSRLRVSATFWQNPRNHFRCQVQFYGLSENDEWTQDRAKPVTQIVSAEAWGRADCGFTSESYQQGVLSATILYEILLGKATLYAVLVSALVLMAMVKRKDSRGRAKRSGSGATNFSLLKQAGDVEENPGPTSATMDWIWRILFLVGAATGAHSGPEVQLVESGGGLVQAGGSLRLSCAASGRTFSMGWFRQAPGKEREFVAAITYSGGSPYYADSVKGRFTISRDNAKNTVYLQMNSLKPEDTAVYYCAANPTYGSDWNAENWGQGTQVTVSSGSGGGGSGGGGSGGGGSFEQKEVEQNSGPLSVPEGAIASLNCTYSDRGSQSFFWYRQYSGKSPELIMSIYSNGDKEDGRFTAQLNKASQYVSLLIRDSQPSDSATYLCAVNSQSGVALNFGKGTSLLVTPHIQNPDPAVYQLRDSKSSDKSVCLFTDFDSQTNVSQSKDSDVYITDKCVLDMRSMDFKSNSAVAWSNKSDFACANAFNNSIIPEDTFFPSPESSCDVKLVEKSFETDTNLNFQNLSVIGFRILLLKVAGFNLLMTLRLWSSRAKRSGSGVKQTLNFDLLKLAGDVESNPGPSRGHMTEYKPTVRLATRDDVPRAVRTLAAAFADYPATRHTVDPDRHIERVTELQELFLTRVGLDIGKVWVADDGAAVAVWTTPESVEAGAVFAEIGPRMAELSGSRLAAQQQMEGLLAPHRPKEPAWFLATVGVSPDHQGKGLGSAVVLPGVEAAERAGVPAFLETSAPRNLPFYERLGFTVTADVEVPEGPRTWCMTRKPGA

Each molecule was assayed on RAJI cells (assay: JNG assay, co-culture with RAJI cells). Details: co-culture with RAJI cells.
Format: cell-based
Protocol: Cellular supernatant is collected and assayed for the induction of cytokines (e.g., IL2).
JNG (Jurkat cells expressing EGFP under an NFAT promoter) were infected with lentiviral vectors encoding different single chain and multi-chain SARs by spinfection in the presence of 8 µg/ml of Polybrene® (Sigma, Catalog no. H9268). The Jurkat-NFAT-GFP cells are engineered in such a way that the IL-2 promoter, which carries NFAT binding sites, is cloned upstream of the GFP gene. These cells have been used to study signaling via TCR and CAR. The different SARs were stably expressed in Jurkat NFAT-GFP cells by lentiviral mediated gene transfer, followed by selection with puromycin or blasticidin. No drug selection was used in case the construct lacked an antibiotic resistance gene. The SAR-expressing Jurkat-NFAT-GFP cells were cocultured with the target cells at E:T ratio of approximately 1:2 for approximately 4 hours to 18 hours. When the interaction between SIRs and their target antigen results in activation of the NFAT pathway, GFP expression is induced. […] GFP expression was monitored by FACS analysis. The Jurkat-NFAT-GFP (parental) cells were used as control. The structure of different constructs can be determined based on their names. […] The sequence of the other constructs in the table can be similarly determined from their names and by referring to the different Tables of this disclosure that provide the names and SEQ ID NO of the different modules. Alternatively, the composition and modular architecture of the different SAR constructs can be determined from their sequences by bioinformatics tools, including using nucleic acid and amino acids homology searches. A SAR is considered positive in the assay in case the SAR expressing Jurkat-NFAT-GFP cells show greater % GFP positive cells when cultured with the target cell line as compared to parental Jurkat-NFAT-GFP cells. […] In general, the number +/-, +, 2+, 3+, 4+, 5+ refer to approximately 5%, 10%, 20%, 30%, 40% and 50% GFP positive cells. The % of GFP induction in the above assay is dependent not only the relative strength of the SAR but also, among other factors, on the relative level of expression of the SAR in the JNG cells and the relative level of expression of the target antigen in the target cell line. To control for the difference in gene transduction efficiency of the different SAR constructs, the experiment was conducted with JNG cells transduced with SAR constructs co-expressing a drug resistance gene (e.g., puromycin or PAC) followed by drug selection to generate a stable population of SAR-expressing cells. It is to be noted that the drug resistance gene (e.g., PAC) in the SAR constructs is optional and in vivo studies were conducted with SAR constructs lacking the PAC gene.

Molecule | GFP induction / activity
B1 | retained the ability to respond
B2 | retained the ability to respond
B3 | robust GFP induction
B4 | robust GFP induction activity
